Data set [1] concerns the molecule itself. In words: SEC; gel filtration on Superdex 200 10/300GL in 50 mM Tris-HCl, pH 7.6, 200 mM KCl (also Sephacryl S-400HR in 25 mM sodium phosphate, pH 7.6, 150 mM NaCl); elution compared with reference proteins; dimer formation judged from apparent size.
Data set [2] concerns the molecule itself. The data set is described as above. The source holds these as a separate data set.

Like-named read-outs stand apart in the source and are kept apart here.

B1: rod domain (ROD) of S. pombe α-actinin (domain or fragment, Schizosaccharomyces pombe, UniProt O13728 228-483, looked up)
chain: AFSTLDKVETAARRVERFTEVLMSTHDMKIDYESRMKRLLGSIARMQEYWHTVQFENNYTDVKSHSNNFAKFKATEKREWVKEKIDLESLLGTIQTNLKTYQLRKYEPPAGLKIVDLERQWKDFLSEEANQSKLINTHMREIKESMRIAFADRANSFSKMLSTISNEITNLQGDWRDQLDHVEFLQEHLGPLEVELASVKVLYDNCFQAGIEENDYTMFSYEDLEHEFGITANIIANKIKYLENELLEREKRTLSK
notes: alpha-actinin of Schizosaccharomyces pombe, rod domain with two putative spectrin repeats, nucleotides 682-1449, residues 228-483; 258 residues in all; also called pTEV-SP-ROD; source: E. coli BL21(DE3), purified (nickel chelating column, TEV cleavage, ion exchange when necessary); not shown: 10xHis, N-terminal, cleaved
As for B1, in data set [1], the binding result was “binds”.

B2: full-length S. pombe α-actinin (natural protein, Schizosaccharomyces pombe, UniProt O13728 1-621, looked up)
chain: MQANQWQSVQNRTFTKWFNTKLSSRDLPSVFDLRKDLSDGILLIQLLEIIGDENLGRYNRNPRMRVHRLENVNKALEYIKSKGMPLTNIGPADIVDGNLKLILGLIWTLILRFTIADINEEGLTAKEGLLLWCQRKTANYHPEVDVQDFTRSWTNGLAFCALIHQHRPDLLDYNKLDKKNHRANMQLAFDIAQKSIGIPRLIEVEDVCDVDRPDERSIMTYVAEYFHAFSTLDKVETAARRVERFTEVLMSTHDMKIDYESRMKRLLGSIARMQEYWHTVQFENNYTDVKSHSNNFAKFKATEKREWVKEKIDLESLLGTIQTNLKTYQLRKYEPPAGLKIVDLERQWKDFLSEEANQSKLINTHMREIKESMRIAFADRANSFSKMLSTISNEITNLQGDWRDQLDHVEFLQEHLGPLEVELASVKVLYDNCFQAGIEENDYTMFSYEDLEHEFGITANIIANKIKYLENELLEREKRTLSKQELDGITKVFRHFEKKKSNMLNEVEFYAALASLGLVYDTEEGTALFHRAANSEEGVTYERFTEIVMEELEDRDSARQVLYAFCDVADGKSYVTSDDLLRSQVRPNIVKFLECNMNKHSEGLDYLTWIKQLLAEDKEIV
notes: also called full length α-actinin; pTEV-SP; source: E. coli BL21(DE3), purified (nickel chelating column, TEV cleavage, ion exchange when necessary); not shown: 10xHis, N-terminal, cleaved
Consider B2, for which the binding result in data set [2] is “binds”.

B3: ABD-ROD of S. pombe α-actinin (domain or fragment, Schizosaccharomyces pombe, UniProt O13728 1-483, looked up)
chain: MQANQWQSVQNRTFTKWFNTKLSSRDLPSVFDLRKDLSDGILLIQLLEIIGDENLGRYNRNPRMRVHRLENVNKALEYIKSKGMPLTNIGPADIVDGNLKLILGLIWTLILRFTIADINEEGLTAKEGLLLWCQRKTANYHPEVDVQDFTRSWTNGLAFCALIHQHRPDLLDYNKLDKKNHRANMQLAFDIAQKSIGIPRLIEVEDVCDVDRPDERSIMTYVAEYFHAFSTLDKVETAARRVERFTEVLMSTHDMKIDYESRMKRLLGSIARMQEYWHTVQFENNYTDVKSHSNNFAKFKATEKREWVKEKIDLESLLGTIQTNLKTYQLRKYEPPAGLKIVDLERQWKDFLSEEANQSKLINTHMREIKESMRIAFADRANSFSKMLSTISNEITNLQGDWRDQLDHVEFLQEHLGPLEVELASVKVLYDNCFQAGIEENDYTMFSYEDLEHEFGITANIIANKIKYLENELLEREKRTLSK
notes: 485 residues in all; also called pTEV-SP-ABD-ROD; source: E. coli BL21(DE3), purified (nickel chelating column, TEV cleavage, ion exchange when necessary); not shown: 10xHis, N-terminal, cleaved
B3: the binding result in data set [1] is “binds”.

B4: ROD-EF of S. pombe α-actinin (domain or fragment, Schizosaccharomyces pombe, UniProt O13728 228-621, looked up)
chain: AFSTLDKVETAARRVERFTEVLMSTHDMKIDYESRMKRLLGSIARMQEYWHTVQFENNYTDVKSHSNNFAKFKATEKREWVKEKIDLESLLGTIQTNLKTYQLRKYEPPAGLKIVDLERQWKDFLSEEANQSKLINTHMREIKESMRIAFADRANSFSKMLSTISNEITNLQGDWRDQLDHVEFLQEHLGPLEVELASVKVLYDNCFQAGIEENDYTMFSYEDLEHEFGITANIIANKIKYLENELLEREKRTLSKQELDGITKVFRHFEKKKSNMLNEVEFYAALASLGLVYDTEEGTALFHRAANSEEGVTYERFTEIVMEELEDRDSARQVLYAFCDVADGKSYVTSDDLLRSQVRPNIVKFLECNMNKHSEGLDYLTWIKQLLAEDKEIV
notes: 396 residues in all; also called pTEV-SP-ROD-EF; source: E. coli BL21(DE3), purified (nickel chelating column, TEV cleavage, ion exchange when necessary); not shown: 10xHis, N-terminal, cleaved
B4: in data set [1], the binding result was “binds”.

The values above are taken from article PMC4824898, “Characterisation of Schizosaccharomyces pombe α-actinin” (PeerJ, 2016).
